{"source": "paper PMC3092982", "key": {"[1]": {"biological_target": "FH fragment SCR-16/20 (human)", "assay": "AUC; sedimentation velocity, SCR-16/20 at 0.1 mg/ml, Hepes buffer, 20 °C, c(s) analysis; monomer and dimer peaks across the ZnSO4 titration 0-600 μM"}, "[2]": {"biological_target": "Complement factor H (Homo sapiens) (UniProt P08603)", "conditions": "cited from earlier work"}, "C3d C3d (Homo sapiens)": {"biological_target": "C3d C3d (Homo sapiens) (UniProt P01024)", "sequence (P01024 1002-1303)": "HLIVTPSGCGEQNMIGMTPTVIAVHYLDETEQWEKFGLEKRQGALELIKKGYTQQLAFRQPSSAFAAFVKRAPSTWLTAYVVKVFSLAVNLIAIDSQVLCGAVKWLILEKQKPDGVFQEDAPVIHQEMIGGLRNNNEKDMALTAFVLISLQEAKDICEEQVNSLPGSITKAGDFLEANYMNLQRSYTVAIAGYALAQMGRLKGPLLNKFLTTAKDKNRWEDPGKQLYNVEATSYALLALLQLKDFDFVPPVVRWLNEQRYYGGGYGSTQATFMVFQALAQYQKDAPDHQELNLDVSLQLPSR", "conditions": "cited from earlier work"}}}
{"substance": "FH fragment SCR-16/20 (domain or fragment)", "values": [{"measurement": "stoichiometry N", "setting": "[1]", "result": 2}]}
{"substance": "Complement factor H (from UniProt P08603)", "values": [{"measurement": "Kd", "setting": "[2]", "result": 28, "unit": "µM"}, {"measurement": "Kd", "setting": "C3d C3d (Homo sapiens)", "result": 2.6, "unit": "µM"}]}
